The Human Domainome abundance scans (Beltran et al. 2025)
± gives the uncertainty stated by the source.

B1: Protein piccolo, residues 1058 to 1114; numbered along this chain, Q9Y6V0 (parent)
chain: TCPLCKTELNIGSKDPPNFNTCTECKNQVCNLCGFNPTPHLTEIQEWLCLNCQTQRA

Variants of: B1
Assay: abundance fitness (aPCA) (normalised: wild type 0, dead -1); higher = more abundant; growth selection in yeast, the domain comes from the species named
Settings: Homo sapiens
Work on TCPLCKTELNIGSKDPPNFNTCTECKNQVCNLCGFNPTPHLTEIQEDLCLNCQTQRA [W47D] yielded an abundance fitness of 0.006 ± 0.26. In the case of TCPLCKTELNIGSKDPPNFNTCTECKNQVCNLCGFNPTPHLTEIQEELCLNCQTQRA [W47E], the abundance fitness is reported as 0.031 ± 0.18. Work on TCPLCKTELNIGSKDPPNFNTCTECKNQVCNLCGFNPTPHLTEIQEFLCLNCQTQRA [W47F] yielded an abundance fitness of -0.065 ± 0.16. Variant TCPLCKTELNIGSKDPPNFNTCTECKNQVCNLCGFNPTPHLTEIQEGLCLNCQTQRA [W47G] has an abundance fitness of 0.056 ± 0.15. With TCPLCKTELNIGSKDPPNFNTCTECKNQVCNLCGFNPTPHLTEIQEHLCLNCQTQRA [W47H] the abundance fitness was -0.135 ± 0.49. In the case of TCPLCKTELNIGSKDPPNFNTCTECKNQVCNLCGFNPTPHLTEIQEILCLNCQTQRA [W47I], the abundance fitness is reported as -0.049 ± 0.38. Variant TCPLCKTELNIGSKDPPNFNTCTECKNQVCNLCGFNPTPHLTEIQEKLCLNCQTQRA [W47K] has an abundance fitness of -0.111 ± 0.25. For TCPLCKTELNIGSKDPPNFNTCTECKNQVCNLCGFNPTPHLTEIQELLCLNCQTQRA [W47L], the abundance fitness was 0.056 ± 0.1. For TCPLCKTELNIGSKDPPNFNTCTECKNQVCNLCGFNPTPHLTEIQEMLCLNCQTQRA [W47M], the abundance fitness was -0.06 ± 0.17. For TCPLCKTELNIGSKDPPNFNTCTECKNQVCNLCGFNPTPHLTEIQENLCLNCQTQRA [W47N], the abundance fitness was -0.354 ± 0.29. TCPLCKTELNIGSKDPPNFNTCTECKNQVCNLCGFNPTPHLTEIQEPLCLNCQTQRA [W47P] showed an abundance fitness of -0.039 ± 0.22. For TCPLCKTELNIGSKDPPNFNTCTECKNQVCNLCGFNPTPHLTEIQEQLCLNCQTQRA [W47Q], the abundance fitness was -0.09 ± 0.19. For TCPLCKTELNIGSKDPPNFNTCTECKNQVCNLCGFNPTPHLTEIQESLCLNCQTQRA [W47S], the abundance fitness was -0.03 ± 0.14. For TCPLCKTELNIGSKDPPNFNTCTECKNQVCNLCGFNPTPHLTEIQETLCLNCQTQRA [W47T], the abundance fitness was -0.195 ± 0.17. TCPLCKTELNIGSKDPPNFNTCTECKNQVCNLCGFNPTPHLTEIQEYLCLNCQTQRA [W47Y] gave an abundance fitness of -0.493 ± 0.25. In the case of TCPLCKTELNIGSKDPPNFNTCTECKNQVCNLCGFNPTPHLTEIQEWACLNCQTQRA [L48A], the abundance fitness is reported as -0.051 ± 0.13. For TCPLCKTELNIGSKDPPNFNTCTECKNQVCNLCGFNPTPHLTEIQEWCCLNCQTQRA [L48C], the abundance fitness was 0.164 ± 0.15. In the case of TCPLCKTELNIGSKDPPNFNTCTECKNQVCNLCGFNPTPHLTEIQEWDCLNCQTQRA [L48D], the abundance fitness is reported as -0.297 ± 0.18. In the case of TCPLCKTELNIGSKDPPNFNTCTECKNQVCNLCGFNPTPHLTEIQEWECLNCQTQRA [L48E], the abundance fitness is reported as -0.131 ± 0.14. With TCPLCKTELNIGSKDPPNFNTCTECKNQVCNLCGFNPTPHLTEIQEWFCLNCQTQRA [L48F] the abundance fitness was 0.09 ± 0.13. TCPLCKTELNIGSKDPPNFNTCTECKNQVCNLCGFNPTPHLTEIQEWGCLNCQTQRA [L48G] gave an abundance fitness of -0.355 ± 0.12. With TCPLCKTELNIGSKDPPNFNTCTECKNQVCNLCGFNPTPHLTEIQEWHCLNCQTQRA [L48H] the abundance fitness was -0.177 ± 0.23. For TCPLCKTELNIGSKDPPNFNTCTECKNQVCNLCGFNPTPHLTEIQEWICLNCQTQRA [L48I], the abundance fitness was -0.105 ± 0.22. Variant TCPLCKTELNIGSKDPPNFNTCTECKNQVCNLCGFNPTPHLTEIQEWKCLNCQTQRA [L48K] has an abundance fitness of -0.245 ± 0.18. Variant TCPLCKTELNIGSKDPPNFNTCTECKNQVCNLCGFNPTPHLTEIQEWMCLNCQTQRA [L48M] has an abundance fitness of -0.312 ± 0.16. Variant TCPLCKTELNIGSKDPPNFNTCTECKNQVCNLCGFNPTPHLTEIQEWNCLNCQTQRA [L48N] has an abundance fitness of -0.063 ± 0.17. Work on TCPLCKTELNIGSKDPPNFNTCTECKNQVCNLCGFNPTPHLTEIQEWPCLNCQTQRA [L48P] yielded an abundance fitness of -0.318 ± 0.17. TCPLCKTELNIGSKDPPNFNTCTECKNQVCNLCGFNPTPHLTEIQEWQCLNCQTQRA [L48Q] showed an abundance fitness of -0.274 ± 0.19. TCPLCKTELNIGSKDPPNFNTCTECKNQVCNLCGFNPTPHLTEIQEWRCLNCQTQRA [L48R] gave an abundance fitness of -0.079 ± 0.11. For TCPLCKTELNIGSKDPPNFNTCTECKNQVCNLCGFNPTPHLTEIQEWSCLNCQTQRA [L48S], the abundance fitness was -0.063 ± 0.11. TCPLCKTELNIGSKDPPNFNTCTECKNQVCNLCGFNPTPHLTEIQEWTCLNCQTQRA [L48T] showed an abundance fitness of -0.089 ± 0.14. Variant TCPLCKTELNIGSKDPPNFNTCTECKNQVCNLCGFNPTPHLTEIQEWVCLNCQTQRA [L48V] has an abundance fitness of -0.165 ± 0.098. In the case of TCPLCKTELNIGSKDPPNFNTCTECKNQVCNLCGFNPTPHLTEIQEWWCLNCQTQRA [L48W], the abundance fitness is reported as -0.061 ± 0.13. In the case of TCPLCKTELNIGSKDPPNFNTCTECKNQVCNLCGFNPTPHLTEIQEWYCLNCQTQRA [L48Y], the abundance fitness is reported as -0.112 ± 0.17. TCPLCKTELNIGSKDPPNFNTCTECKNQVCNLCGFNPTPHLTEIQEWLALNCQTQRA [C49A] gave an abundance fitness of -0.66 ± 0.13. For TCPLCKTELNIGSKDPPNFNTCTECKNQVCNLCGFNPTPHLTEIQEWLDLNCQTQRA [C49D], the abundance fitness was -0.597 ± 0.2. In the case of TCPLCKTELNIGSKDPPNFNTCTECKNQVCNLCGFNPTPHLTEIQEWLELNCQTQRA [C49E], the abundance fitness is reported as -1.01 ± 0.24. TCPLCKTELNIGSKDPPNFNTCTECKNQVCNLCGFNPTPHLTEIQEWLFLNCQTQRA [C49F] showed an abundance fitness of -0.793 ± 0.24. For TCPLCKTELNIGSKDPPNFNTCTECKNQVCNLCGFNPTPHLTEIQEWLGLNCQTQRA [C49G], the abundance fitness was -0.934 ± 0.14. Work on TCPLCKTELNIGSKDPPNFNTCTECKNQVCNLCGFNPTPHLTEIQEWLHLNCQTQRA [C49H] yielded an abundance fitness of -0.761 ± 0.18. TCPLCKTELNIGSKDPPNFNTCTECKNQVCNLCGFNPTPHLTEIQEWLILNCQTQRA [C49I] gave an abundance fitness of -1.05 ± 0.28. For TCPLCKTELNIGSKDPPNFNTCTECKNQVCNLCGFNPTPHLTEIQEWLLLNCQTQRA [C49L], the abundance fitness was -1 ± 0.14. With TCPLCKTELNIGSKDPPNFNTCTECKNQVCNLCGFNPTPHLTEIQEWLNLNCQTQRA [C49N] the abundance fitness was -0.618 ± 0.28. In the case of TCPLCKTELNIGSKDPPNFNTCTECKNQVCNLCGFNPTPHLTEIQEWLPLNCQTQRA [C49P], the abundance fitness is reported as -0.418 ± 0.14. With TCPLCKTELNIGSKDPPNFNTCTECKNQVCNLCGFNPTPHLTEIQEWLQLNCQTQRA [C49Q] the abundance fitness was -0.927 ± 0.17. Work on TCPLCKTELNIGSKDPPNFNTCTECKNQVCNLCGFNPTPHLTEIQEWLRLNCQTQRA [C49R] yielded an abundance fitness of -0.782 ± 0.13. Variant TCPLCKTELNIGSKDPPNFNTCTECKNQVCNLCGFNPTPHLTEIQEWLTLNCQTQRA [C49T] has an abundance fitness of -1.06 ± 0.26.
